Source: paper PMC11796321, “Interleukin‐11 receptor is an alternative α‐receptor for interleukin‐6 and the chimeric cytokine IC7” (The Febs Journal, 2024)

T1: recombinant his-tagged soluble human IL-11R (human, UniProt Q14626 24-370)
T1 sequence (looked up): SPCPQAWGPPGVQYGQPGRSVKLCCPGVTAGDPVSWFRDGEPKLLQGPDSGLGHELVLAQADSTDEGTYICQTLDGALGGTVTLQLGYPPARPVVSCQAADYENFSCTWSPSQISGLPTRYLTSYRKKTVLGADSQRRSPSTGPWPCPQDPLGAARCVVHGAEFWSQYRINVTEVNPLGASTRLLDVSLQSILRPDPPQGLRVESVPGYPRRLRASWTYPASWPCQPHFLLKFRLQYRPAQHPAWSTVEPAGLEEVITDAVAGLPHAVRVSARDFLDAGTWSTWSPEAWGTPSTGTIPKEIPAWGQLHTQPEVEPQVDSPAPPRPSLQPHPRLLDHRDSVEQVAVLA

T2: recombinant his-tagged soluble human IL-6R (human, UniProt P08887 20-365)
T2 construct: soluble human IL-6 α-receptor; In functional rows this id also stands for hIL-6R expressed on Ba/F3 cells (whole receptor); the readout says so; also called sIL-6R; shIL-6R; source: bought: R&D Systems (cat. no. 10537)
T2 sequence (looked up): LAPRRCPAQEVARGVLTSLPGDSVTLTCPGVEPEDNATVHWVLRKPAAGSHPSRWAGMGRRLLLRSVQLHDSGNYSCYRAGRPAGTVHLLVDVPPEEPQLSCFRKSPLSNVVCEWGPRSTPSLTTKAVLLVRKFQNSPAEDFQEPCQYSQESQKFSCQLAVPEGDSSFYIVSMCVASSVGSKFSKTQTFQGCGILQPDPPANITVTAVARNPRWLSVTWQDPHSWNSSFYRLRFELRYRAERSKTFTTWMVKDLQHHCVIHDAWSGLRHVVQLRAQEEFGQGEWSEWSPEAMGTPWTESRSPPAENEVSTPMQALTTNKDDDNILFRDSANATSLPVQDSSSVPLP

B1: Hyper IL-11 (fusion protein of shIL-11R and hIL-11), Twin-Strep-tagged (other)
chain: SSPCPQAWGPPGVQYGQPGRSVKLCCPGVTAGDPVSWFRDGEPKLLQGPDSGLGHELVLAQADSTDEGTYICQTLDGALGGTVTLQLGYPPARPVVSCQAADYENFSCTWSPSQISGLPTRYLTSYRKKTVLGADSQRRSPSTGPWPCPQDPLGAARCVVHGAEFWSQYRINVTEVNPLGASTRLLDVSLQSILRPDPPQGLRVESVPGYPRRLRASWTYPASWPCQPHFLLKFRLQYRPAQHPAWSTVEPAGLEEVITDAVAGLPHAVRVSARDFLDAGTWSTWSPEAWGTPSTGGGSGGGSPGPPPGPPRVSPDPRAELDSTVLLTRSLLADTRQLAAQLRDKFPADGDHNLDSLPTLAMSAGALGALQLPGVLTRLRADLLSYLRHVQWLRRAGGSSLKTLEPELGTLQARLDRLLRRLQLLMSRLALPQPPPDPPAPPLAPPSSAWGGIRAAHAILGGLHLTLDWAVRGLLLLKTRL
B2: sgp130Fc (fusion protein of soluble hgp130 to the Fc-part of an IgG antibody) (Fc fusion, human, UniProt P40189 23-619, looked up)
chain: ELLDPCGYISPESPVVQLHSNFTAVCVLKEKCMDYFHVNANYIVWKTNHFTIPKEQYTIINRTASSVTFTDIASLNIQLTCNILTFGQLEQNVYGITIISGLPPEKPKNLSCIVNEGKKMRCEWDGGRETHLETNFTLKSEWATHKFADCKAKRDTPTSCTVDYSTVYFVNIEVWVEAENALGKVTSDHINFDPVYKVKPNPPHNLSVINSEELSSILKLTWTNPSIKSVIILKYNIQYRTKDASTWSQIPPEDTASTRSSFTVQDLKPFTEYVFRIRCMKEDGKGYWSDWSEEASGITYEDRPSKAPSFWYKIDPSHTQGYRTVQLVWKTLPPFEANGKILDYEVTLTRWKSHLQNYTVNATKLTVNLTNDRYLATLTVRNLVGKSDAAVLTIPACDFQATHPVMDLKAFPKDNMLWVEWTTPRESVKKYILEWCVLSDKAPCITDWQQEDGTVHRTYLRGNLAESKCYLITVTPVYADGPGSPESIKAYLKQAPPSKGPTVRTKKVGKNEAVLEWDQLPVDVQNGFIRNYTIFYRTIIGNETAVNVDSSHTEYTLSSLTSDTLYMVRMAAYTDEGGKDGPEFTFTTPKFAQGEIE
B3: Twin-strep-tagged human IL-11 (ligand, UniProt P20809 22-199, looked up)
chain: PGPPPGPPRVSPDPRAELDSTVLLTRSLLADTRQLAAQLRDKFPADGDHNLDSLPTLAMSAGALGALQLPGVLTRLRADLLSYLRHVQWLRRAGGSSLKTLEPELGTLQARLDRLLRRLQLLMSRLALPQPPPDPPAPPLAPPSSAWGGIRAAHAILGGLHLTLDWAVRGLLLLKTRL
notes: human interleukin 11 (IL-11); A His-tagged hIL-11 from E. coli (hIL-11his) was used only in some Western blots of signalling, not in SPR; also called hIL-11ts; hIL-11

Key:
[1] = target: B2; assay: SPR; Biacore X100, Protein A sensor chip; sgp130Fc captured via its Fc (200-300 RU per cycle); hyper-cytokines injected 30 uL/min, 120 s, dissociation 300 s (200-0.20 nM cHIL-6, 25-0.05 nM HIL-6, 50-0.62 nM HIL-11); 1:1 binding model; conditions: both partners purified
[2] = target: B2; assay: cell-based or functional assay
[3] = target: Hyper IL-6 (fusion protein of human sIL-6R and human IL-6), Twin-Strep-tagged (human); assay: cell-based or functional assay
[4] = target: chimeric Hyper-cytokine IL-6/sIL-11R (cHIL-6), Twin-Strep-tagged (human, UniProt Q14626 23-317); assay: cell-based or functional assay
[5] = target: B1; assay: cell-based or functional assay
[6] = target: T1, recombinant his-tagged soluble human …; assay: cell-based or functional assay
[7] = target: T2, recombinant his-tagged soluble human …; assay: SPR; Biacore X100, multi-cycle, NTA sensor chip; his-tagged soluble hIL-6R or hIL-11R immobilised (100-250 RU per cycle); cytokines injected 133.33 to 0.183 nM, 30 uL/min, 180 s, dissociation 800 s; 25 °C, PBS with 0.05% P20 and 50 uM EDTA; two-state reaction fit; parameters: ka1 (two-state fit, first step) / ka2 (two-state fit, second step): unit not given here; conditions: both partners purified
[8] = target: T1, recombinant his-tagged soluble human …; assay: as above; parameters: ka1 (two-state fit, first step) / ka2 (two-state fit, second step): unit not given here; conditions: both partners purified

Binder: B1
Kd [1]: 0.397 nM
koff [1]: 0.000142 s⁻¹
kon [1]: 360000 M⁻¹ s⁻¹
EC50 of proliferation of Ba/F3-hgp130 cells (hgp130 on cells), 72 h [2]: 0.0578 nM

Binder: B2
IC50 of sgp130Fc on growth of Ba/F3-gp130 cells induced by 1.7 nM HIL-6 (blocks HIL-6 with gp130 on cells) [3]: 0.428 nM
IC50 of sgp130Fc on growth of Ba/F3-gp130 cells induced by 1.7 nM cHIL-6 (blocks cHIL-6 with gp130 on cells) [4]: 0.324 nM
IC50 of sgp130Fc on growth of Ba/F3-gp130 cells induced by 1.7 nM HIL-11 (blocks HIL-11 with gp130 on cells) [5]: 0.213 nM

Binder: B3
EC50 of proliferation of Ba/F3-hgp130-hIL-11R cells (hIL-11R on cells), 72 h [6]: 0.0216 nM
Kd [7]: 58.4 nM
ka1 (two-state fit, first step) [7]: 164000
ka2 (two-state fit, second step) [7]: 0.0112
kd1 (two-state fit, first step) [7]: 0.0925 s⁻¹
kd2 (two-state fit, second step) [7]: 0.00129 s⁻¹
Kd [8]: 0.53 nM
ka1 (two-state fit, first step) [8]: 2.3e+06
ka2 (two-state fit, second step) [8]: 0.00454
kd1 (two-state fit, first step) [8]: 0.00692 s⁻¹
kd2 (two-state fit, second step) [8]: 0.000972 s⁻¹
